The target in this test is N-utilization substance (Nus) G, Escherichia coli (E. coli) (UniProt P0AFG0). The test is described as follows: cryo-EM structure.
Chain of UniProt P0AFG0 (P0AFG0 whole entry): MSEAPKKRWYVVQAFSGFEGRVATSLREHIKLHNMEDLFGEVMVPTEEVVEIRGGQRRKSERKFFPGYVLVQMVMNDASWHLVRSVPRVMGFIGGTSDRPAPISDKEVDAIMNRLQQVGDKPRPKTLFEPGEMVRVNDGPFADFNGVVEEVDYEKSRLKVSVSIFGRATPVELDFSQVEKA

Take “70S ribosome (E. coli), intact (from UniProt P0A7R5 5-102) (complex)”: the percent of particles with extra density at S10 amounted to 5% and the stoichiometry N came to 1.

Values taken from article PMC7390762.
